The test addresses extracellular domain portion of LEPR protein expressed with a C-terminal human Fc tag (human). Kind of test: competition ELISA, 10 nM hLEPR-hFc binding to coated hLeptin; soluble hLeptin as competitor.

extracellular domain portion of LEPR protein expressed with a C-terminal human Fc tag (human), sequence (chain, as listed by the source limits assumed): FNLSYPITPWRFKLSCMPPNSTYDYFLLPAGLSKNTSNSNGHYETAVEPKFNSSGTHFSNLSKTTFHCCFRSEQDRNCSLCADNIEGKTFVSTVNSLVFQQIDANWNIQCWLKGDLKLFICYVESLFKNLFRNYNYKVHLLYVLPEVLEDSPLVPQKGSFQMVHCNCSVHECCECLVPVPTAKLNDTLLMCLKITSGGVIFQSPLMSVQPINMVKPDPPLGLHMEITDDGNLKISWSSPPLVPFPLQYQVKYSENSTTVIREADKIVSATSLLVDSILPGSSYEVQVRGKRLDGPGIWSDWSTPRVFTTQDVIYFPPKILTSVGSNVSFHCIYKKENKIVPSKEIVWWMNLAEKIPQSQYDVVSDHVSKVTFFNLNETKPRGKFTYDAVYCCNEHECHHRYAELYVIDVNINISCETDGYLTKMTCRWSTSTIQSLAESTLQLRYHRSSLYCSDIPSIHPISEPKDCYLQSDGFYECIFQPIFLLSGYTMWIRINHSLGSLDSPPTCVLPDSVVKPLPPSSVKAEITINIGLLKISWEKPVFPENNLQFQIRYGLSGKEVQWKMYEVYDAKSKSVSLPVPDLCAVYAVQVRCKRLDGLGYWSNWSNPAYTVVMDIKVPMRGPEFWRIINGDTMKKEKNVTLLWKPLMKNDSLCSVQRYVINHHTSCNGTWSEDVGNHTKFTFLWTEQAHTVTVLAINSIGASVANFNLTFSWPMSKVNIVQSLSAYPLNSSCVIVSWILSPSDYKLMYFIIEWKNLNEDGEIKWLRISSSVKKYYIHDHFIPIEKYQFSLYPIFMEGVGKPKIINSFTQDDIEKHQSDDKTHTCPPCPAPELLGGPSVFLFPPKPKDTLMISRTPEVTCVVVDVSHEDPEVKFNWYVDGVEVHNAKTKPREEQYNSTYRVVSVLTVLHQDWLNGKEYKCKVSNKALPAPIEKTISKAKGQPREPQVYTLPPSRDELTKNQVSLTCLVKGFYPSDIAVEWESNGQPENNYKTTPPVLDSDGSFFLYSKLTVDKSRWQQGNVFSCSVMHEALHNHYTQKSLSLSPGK

Consider “human Leptin (from UniProt P41159 22-167) (ligand)”, for which the % blockade at 500 nM was 99%.

Source of the values: patent US20230235068A1.
